Data as given in patent US11856945B2, “Methods and systems for preparing and preserving a biological sample” (Washington University, priority 2017, dated 2024).

Key:
[1] = Circular dichroism of insulin secondary structure; type: physicochemical
Description: To further confirm that ZIF-8 encapsulation preserves the insulin structure, circular dichroism (CD) spectroscopy was employed to characterize the secondary structure of insulin with and without ZIF-8 encapsulation after 1 week incubation at 40° C. (FIG. 26D). […] Inset: Secondary structure content of the three types of insulin obtained from the CD spectra. […] FIG. 30 discloses the following: Left: CD spectra of pristine insulin prior to agitation, released insulin from ZIF-8 encapsulation after 48 h agitation at 200 rpm and insulin without ZIF-8 encapsulation after 48 h agitation at 200 rpm; Right: secondary structure content of the three types of insulin obtained from the CD spectra. […] FIG. 31 discloses the following: Left: CD spectra of pristine insulin prior to exposure to ethyl acetate, released insulin from ZIF-8 encapsulation after exposure to ethyl acetate for 6 h and insulin without ZIF-8 encapsulation after exposure to ethyl acetate for 6 h; and, right: secondary structure content of the three types of insulin obtained from the CD spectra. […]
Circular dichroism (CD) spectroscopy. […] The insulin recovered from various treatments was quantified by BCA assay and diluted to 100 μg/mL in PBS. The secondary structures of insulin (α-helical content, β-sheet content) were analyzed using CDPro software from CD spectra.

[2] = tested on: STZ-induced type 1 diabetic mice; conditions: mouse, in vivo
Description: STZ-induced male C57BL/6 (6-10 weeks) type 1 diabetic mice were purchased from Jackson Laboratory (USA). The blood glucose levels of mice were tested 1 day before administration by collecting blood (˜3 μL) from the tail vein and measuring using the Clarity GL2Plus glucose monitor (VWR, USA). The mice were randomly divided into four groups (3 mice each group) and intravenously injected via lateral tail vein with PBS solution, insulin stored at −20° C., ZIF-8 preserved insulin (dissociated by EDTA) and insulin alone stored at 40° C. for 1 week, respectively. The insulin dose for each mouse was 1 mg/kg (125 μg/mL, ˜200 μL). The blood glucose level was measured from tail vein blood samples (˜3 μL) of mice at different time points (at 10, 20, 40, and 60 min, and once per hour afterward for the first 12 h in the day of administration). Mice were anesthetized with 2% isoflurane. The mice treated with ZIF-8 preserved insulin and PBS were sacrificed after 5 days administration, and major organs were collected and sliced for haematoxylin and eosin (H&E) staining.

[3] = tested on: streptozotocin-induced type 1 diabetic mice; experiment: Blood glucose in streptozotocin-induced type 1 diabetic mice; type: in vivo; conditions: 1 mg/kg intravenous
Description: After establishing the chemical stability and structural integrity of ZIF-8 encapsulated insulin, the biological activity of ZIF-8 encapsulated insulin was assessed by measuring the effectiveness of ZIF-8 encapsulated insulin for treating hyperglycemia in streptozotocin-induced type 1 diabetic mice. […] The ZIF-8 encapsulated insulin was released by adding EDTA before injection. The blood glucose concentrations of mice in each group were then monitored for 12 h. […] Histological evaluation of the major organs of the mice at 5 days after intravenous injection of PBS or stabilized insulin. […] The ZIF-8 encapsulated insulin was released by adding EDTA before injection. Results are the mean±standard deviation (n=3). […] The partial loss of insulin bioactivity here could be attributed to the loss of structure integrity of insulin at elevated temperatures as confirmed by the aforementioned ELISA, CD and HPLC experiments.
Mice were anesthetized with 2% isoflurane.

[4] = Release of insulin from ZIF-8 encapsulation by EDTA; type: physicochemical; conditions: 30 mM zinc acetate with 120 mM 2-methylimidazole
Excerpt: Elevated temperature is the primary detrimental condition during insulin transport and storage, an issue likely to be exacerbated by the increasing epidemic of diabetes in the developing countries, where refrigeration or “cold chain” facilities are not guaranteed. At high temperatures, insulin undergoes both physical (such as unfolding, non-native aggregation and fibrillation) and chemical degradations (such as deamidation, disulfide destruction and reshuffling). […] After 1 week, the ZIF-8 encapsulated insulin was released by adding ethylenediaminetetraacetic acid (EDTA) to dissociate the ZIF-8 crystals by breaking the coordination bonds between zinc and 2-methylimidazole (FIG. 25). The released insulin and unencapsulated insulin were then quantified by ELISA. The preservation efficacy (insulin recovery %) was calculated by comparing the recovered amount of insulin to the insulin amount prior to incubation. […] Compared to the optimal precursor concentrations, the low insulin recovery upon using 10 mM zinc acetate with 40 mM 2-methylimidazole is attributed to the incomplete encapsulation of insulin (FIG. 24). […] The insulin amount in the solution was measured by ELISA and compared with total insulin amount before encapsulation. […]

[5] = Preservation of CA-125 spiked in fresh blood under temperature fluctuations and shipping; type: physicochemical; conditions: plasma from spiked fresh blood, 20-fold diluted; 8 days 25/40° C. temperature cycles or 10 days shipping
Description: The applicability of this technique was assessed to preserve blood samples drawn in resource-limited settings. Unlike serum and plasma, in some embodiments the presence of a large quantity of whole cells (red and white blood cells and platelets) in blood affects ZIF-8 encapsulation of target protein biomarkers. Considering that in some embodiments ZIF-8 also forms a thick layer on cell surfaces56 and lead to incomplete encapsulation or preservation of target protein biomarkers, it is important to remove blood cells through centrifugation before ZIF-8 encapsulation of protein biomarkers. Unfortunately, centrifuge is typically inaccessible in resource-limited settings considering that conventional systems are bulky, expensive and electrically-powered. A hand-powered centrifuge was implemented that was able to separate plasma from whole blood within 10 minutes for subsequent ZIF-8 encapsulation (FIG. 19A). In order to mimic fresh whole blood samples from ovarian cancer patients, four different concentrations of CA-125 within pathological-relevant range from 25 ng/ml-25 μg/ml were spiked into fresh blood from healthy volunteers.58-59 Then the plasma samples (heparin-anticoagulated) were separated from blood and diluted 20-fold for ZIF-8 encapsulation. To assess the preservation efficacy of this approach under unregulated conditions, two sets of experiments were devised. […]

[6] = Preservation of CA-125 spiked in serum/plasma dried on paper (ELISA); type: physicochemical
Excerpt: Further attention was given to blood (and components serum and plasma), the most common biospecimens in biological and clinical studies. Compared to urine, serum or plasma represents a more complex biological matrix due to the presence of large amount of various proteins such as albumin, globulins and fibrinogen. Before proceeding to assess the preservation of specific protein biomarker, it was confirmed that different types of proteins are extracted from the paper substrates containing dried serum with or without ZIF-8 encapsulation using sodium dodecyl sulfate-polyacrylamide gel electrophoresis (SDS-PAGE), indicating the potential of this technique in preserving multiple protein biomarkers simultaneously in serum or plasma (FIG. 16). […] Lane a, c and e are corresponding to eluate of volunteer #1, #2 and #3 serum without ZIF-8 encapsulation, respectively. Lane b, d and f are corresponding to eluate of volunteer #1, #2 and #3 serum with ZIF-8 encapsulation, respectively. CA-125, a serum biomarker for ovarian cancer, was used as the model protein and spiked into serum from healthy people. Considering extremely high concentration of serum proteins, the serum was first diluted (5-, 10- or 20-fold) before spiking CA-125 and adding ZIF-8 precursors to ensure ZIF-8 formation and more complete encapsulation. The CA-125 spiked serum samples, both with and without ZIF-8 encapsulation, were dried on paper and stored at 40° C. for 1 week. […] The poor preservation of CA-125 from 5- and 10-fold diluted serum was due to the incomplete ZIF-8 formation and encapsulation (FIG. 18). The encapsulation efficiency was calculated by subtracting the remaining CA-125 amount in the supernatant after encapsulation and centrifugation (concentration measured by ELISA) from the total CA-125 amount. […] Subsequently, CA-125 was spiked into three different matrices that represent typical blood-derived biospecimens (serum, heparin-anticoagulated plasma and EDTA-anticoagulated plasma from healthy people with 20-fold dilution), dried on paper substrates with and without ZIF-8 encapsulation, and subsequently stored at 25, 40, or 60° C. for different durations of time. CA-125 concentration in the eluate was quantified using sandwich ELISA. […] (FIG. 17D-F). FIGS. 17D-F show preservation efficacy of CA-125 spiked in serum, heparin-plasma or EDTA-plasma on paper card at 25, 40 or 60° C. for different durations.
Sample preparation. NGAL-spiked artificial urine (50 μg/ml of NGAL, 25 μl) or patient urine (25 μl) was first mixed with 2-methylimidazole aqueous solution (12.5 μl) and then zinc acetate dihydrate aqueous solution (12.5 μl). The final concentrations of 2-methylimidazole after mixing were 320 mM, 160 mM, 80 mM and 40 mM. […]

unencapsulated insulin: human recombinant insulin in solution without ZIF-8 encapsulation
secondary structure (CD spectrum) ([1]; 1 week incubation at 40° C., versus pristine insulin): an increase in the β-sheet content along with the decrease in the α-helical content | secondary structure (CD spectrum) ([1]; after mechanical agitation (48 h at 200 rpm)): from an overall rich helical to dominant β-sheet structure | Mice weight Before [2]: 22.0 ± 0.2 g | effect on blood glucose concentrations [3]: only moderately decreased glucose concentrations | release of insulin from ZIF-8 by EDTA [4]: ~90%

cancer antigen 125 [CA-125]
CA-125 preservation [5]: 50-60% | CA-125 preservation ([6]; 20-fold diluted serum, with ZIF-8 encapsulation, 40° C., one week): ~90% | CA-125 preservation ([6]; serum, heparin-plasma and EDTA-plasma (20-fold dilution), 25° C., 4 weeks): ~50% | CA-125 preservation ([6]; serum, heparin-plasma and EDTA-plasma (20-fold dilution), 40° C., 4 weeks): ~40% | CA-125 preservation ([6]; serum, heparin-plasma and EDTA-plasma (20-fold dilution), 60° C., 4 weeks): ~30%

Insulin at −20° C.: unencapsulated insulin solution stored frozen at −20° C., the gold standard control
time blood glucose maintained in the normoglycemic range [3]: 4 h | blood glucose after return to hyperglycemic range ([3]; within 12 h): ~550 mg/dL
